Results: the Human Domainome abundance scans (Beltran et al. 2025)

B1: Far upstream element-binding protein 1, residues 98 to 169; numbered along this chain, Q96AE4 (parent)
chain: RSVMTEEYKVPDGMVGFIIGRGGEQISRIQQESGCKIQIAPDSGGLPERSCMLTGTPESVQSAKRLLDQIVE

Variants of: B1
Experiment: abundance fitness (aPCA) (normalised: wild type 0, dead -1); higher = more abundant; growth selection in yeast, the domain comes from the species named
Conditions: Homo sapiens

Abundance fitness: each site, then its substitutions
S33: H -0.308 | Y -0.435 | M -0.414 | C -0.158 | I -0.313 | N -0.534 | A -0.068 | P -0.865 | Q -0.431 | L -0.325 | T -0.034 | G -0.522 | W -0.59 | D -0.868 | F -0.219
I26: H -0.139 | C -0.103 | D -0.529 | A -0.132 | L 0.023 | R -0.17 | M -0.084 | S -0.239 | P -0.515 | V -0.104 | W -0.158 | Q -0.096 | T -0.092
S27: I -0.055 | D -0.046 | R 0.014 | N -0.042 | L -0.054 | T -0.003 | V -0.017 | E 0.007 | P -0.198 | W -0.057 | G -0.016 | H -0.012 | Y -0.07 | A 0.024 | C -0.042 | Q 0.027 | K 0.036 | M -0.025
I37: L -0.087 | P -0.679 | T -0.48 | S -0.788 | Y -0.963 | M -0.081 | V -0.038 | Q -0.911 | A -0.313 | R -1.05 | H -0.775 | D -0.873 | N -0.848 | C -0.129 | K -0.911 | W -0.933 | F -0.25 | E -0.937
Q31: E 0.028 | W -0.153 | M -0.061 | Y -0.09 | G -0.089 | H -0.06 | S -0.025 | N -0.013 | C 0.001 | R -0.014 | I -0.053 | T -0.024 | L -0.043 | A -0.026 | D 0.034 | F -0.089
I19: Q -0.03 | R -0.038 | T -0.018 | W -0.042 | S -0.046 | V 0.012 | Y -0.068
P41: F -0.198 | A -0.044 | C -0.025 | D 0.009 | E 0.005
G23: I -0.17 | F -0.179 | L -0.174 | M -0.037 | Q -0.062 | W -0.101 | A -0.045 | V -0.157 | R -0.044 | D -0.051 | H -0.159 | S -0.061 | T -0.127 | C -0.101 | Y -0.072 | E -0.011 | P -0.181 | N -0.055
K36: G -0.058 | Y -0.149 | A -0.018 | M -0.047 | E -0.025 | I -0.078 | V -0.022 | F -0.044 | L -0.026 | W -0.129 | D -0.02 | S -0.041 | R -0.034 | P -0.666 | H -0.046 | N -0.059 | T -0.062 | Q -0.04 | C -0.031
I39: K -0.445 | E -0.36 | L -0.081 | V -0.032 | T -0.227 | F 0.038 | A -0.252 | Q -0.35 | N -0.415 | W -0.109 | R -0.369 | D -0.51 | C -0.109 | M -0.026 | H -0.266 | Y -0.207
A40: K -0.058 | F -0.101 | N -0.103 | P -0.02 | V -0.089 | T -0.024 | Y -0.088 | D -0.039 | G -0.039 | Q -0.045 | R -0.064 | C -0.023 | S -0.034 | M -0.032 | L -0.05
Q25: N -0.107 | K -0.013 | D -0.071 | V -0.07 | G -0.035 | R -0.016 | W -0.145 | A -0.088 | E 0.036 | S -0.023 | M -0.027 | C -0.054 | L -0.108 | Y -0.132 | F -0.242 | H -0.021
G20: I -0.284 | M -0.174 | V -0.253 | E 0.002 | K -0.14 | W -0.321 | D -0.063 | R -0.112 | S -0.078 | A -0.066 | Q -0.178 | T -0.182 | H -0.08 | N -0.115 | Y -0.279 | C -0.167 | F -0.176
E32: L -0.092 | P -0.796 | N -0.12 | C -0.096 | D -0.076 | A -0.071 | Y -0.235 | V -0.05 | G -0.166 | Q -0.059 | F -0.208 | M -0.067 | K -0.077
G34: F -0.222 | W -0.364 | Y -0.269 | P -0.837 | Q -0.086 | V -0.256 | S -0.15 | D -0.094 | R -0.071 | K -0.081 | M -0.117 | C -0.095 | L -0.147 | T -0.124 | I -0.316 | H -0.051 | E -0.06 | A -0.1
Q38: S -0.007 | I 0.001 | F -0.031 | A -0.017 | H -0.034 | G -0.09 | L -0.036 | K -0.041 | R -0.032 | W -0.049 | T -0.027 | E 0.023 | D -0.042 | M -0.038 | C -0.005 | P -0.844 | Y -0.138
E24: N -0.163 | W 0.171 | D -0.064 | Q -0.084 | H 0.026 | L -0.108 | C -0.082 | M -0.093 | G -0.057 | K -0.035 | F -0.013 | A -0.032 | S -0.026 | I -0.035 | T -0.035 | V -0.072
C35: K -0.945 | R -0.935 | V -0.087 | G -0.489 | D -0.81 | M -0.847 | N -0.955 | S -0.154 | P -0.986 | Y -1.09 | L -0.554 | W -1.19 | Q -0.936 | H -0.835 | E -0.835 | A -0.036 | F -1.1 | I -0.261 | T -0.172
G22: E -0.006 | D 0.005 | Y -0.137 | P -0.151 | F -0.105 | N 0.048 | M -0.129 | I -0.09 | H -0.021 | Q -0.014 | L -0.099 | C -0.103 | K -0.001 | S -0.1 | W -0.15
R21: S 0.035 | Q 0.046 | E -0.251 | C -0.119 | P -0.027 | H -0.118 | V -0.11
I29: R -0.876 | C -0.179 | V -0.031 | T -0.211 | Y -0.246 | A -0.226 | E -0.781 | K -0.881 | F -0.144 | N -0.787 | P -0.906 | D -0.935 | H -0.423 | G -0.943 | M -0.042 | Q -0.915 | W -0.26 | S -0.682
R28: E -0.058 | F -0.168 | K -0.028 | H -0.021 | V -0.108 | Y -0.131 | D -0.016 | G -0.093 | N -0.102 | M -0.083 | I -0.215 | T -0.068 | C -0.109 | A -0.066 | S -0.045 | Q -0.033 | W -0.104 | L -0.071
